Results: patent CN114591427A (SHENZHEN LIGHT AND BIOTECHNOLOGY CO LTD; GUANGDONG PEOPLES …, dated 2022)

Biological target: T1, MPT32蛋白 in protein extracts of clinical samples of tuberculosis patients (结核分枝杆菌 (Mycobacterium tuberculosis), UniProt P9WIR7 40-325)
T1 construct: Native antigen detected by western blot in patient samples; also called 结核分枝杆菌MPT32蛋白; 抗原蛋白
T1 sequence (looked up): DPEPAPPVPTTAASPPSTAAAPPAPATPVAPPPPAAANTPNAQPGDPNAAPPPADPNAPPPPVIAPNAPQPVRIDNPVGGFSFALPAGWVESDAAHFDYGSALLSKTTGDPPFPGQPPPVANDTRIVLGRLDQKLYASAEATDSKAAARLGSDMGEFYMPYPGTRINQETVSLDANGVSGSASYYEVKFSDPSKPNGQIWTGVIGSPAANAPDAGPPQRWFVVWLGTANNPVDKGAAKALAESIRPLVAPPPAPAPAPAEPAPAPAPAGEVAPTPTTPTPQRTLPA
Assay: western blot of protein extracts of clinical samples

B1: 鼠抗MPT32蛋白单克隆抗体 (secreted by hybridoma cell line 13B12, CCTCC NO:C2021305) (antibody, V domains shown)
VH: QVQLQQSGAELVKPGASVKMSCKASGFTFTSYWINWVKQRPGQGLEWIGDLYPGRGITNYNEKFKPKATLTLDTSSSTAYMQLSSLTSEDSAVYYCSTGPYWGQGTILTVSS
VL: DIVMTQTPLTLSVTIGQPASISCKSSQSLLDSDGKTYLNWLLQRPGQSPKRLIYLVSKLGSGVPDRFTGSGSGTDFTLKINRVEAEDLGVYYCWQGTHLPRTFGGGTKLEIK
notes: also called 鼠抗MPT32单克隆抗体; MPT32蛋白抗体
Question: Does B1 bind?
Answer: binds
